Data set [1] addresses T1, AtERF96 WT (Arabidopsis thaliana, UniProt Q9LSX0 1-131). Briefly: X-ray crystallography; 1.76 A; fEMSA: 30 mM HEPES pH 7.4, 62.5 mM NaCl, 5% glycerol, 30 min RT, gel at 4 C; FP: 30 mM HEPES pH 7.4, 250 mM NaCl, 10% glycerol, 10 nM probe final (20 nM mixed 1:1). The following applies: protein: recombinant; tags: N-terminal 6xHis (pET28a); blunt.
Data set [2] has as its target T1, AtERF96 WT. The experiment in a line: EMSA; fEMSA: 30 mM HEPES pH 7.4, 62.5 mM NaCl, 5% glycerol, 30 min RT, gel at 4 C; FP: 30 mM HEPES pH 7.4, 250 mM NaCl, 10% glycerol, 10 nM probe final (20 nM mixed 1:1). The following applies: protein: recombinant; tags: N-terminal 6xHis (pET28a); label: 5'-fluorescein on forward strand; blunt. (In general: Mobility shift assays separate free from complexed probe on a gel.)

Data set [3] addresses T1, AtERF96 WT. The experiment in a line: fluorescence polarization; two-site fit (KdHi, KdLo); fEMSA: 30 mM HEPES pH 7.4, 62.5 mM NaCl, 5% glycerol, 30 min RT, gel at 4 C; FP: 30 mM HEPES pH 7.4, 250 mM NaCl, 10% glycerol, 10 nM probe final (20 nM mixed 1:1). The following applies: protein: recombinant; tags: N-terminal 6xHis (pET28a); label: 5'-fluorescein on forward strand. (In fluorescence polarisation assays a small probe gives low polarisation when free and higher when bound to something large.)

T1 sequence (Q9LSX0 whole entry): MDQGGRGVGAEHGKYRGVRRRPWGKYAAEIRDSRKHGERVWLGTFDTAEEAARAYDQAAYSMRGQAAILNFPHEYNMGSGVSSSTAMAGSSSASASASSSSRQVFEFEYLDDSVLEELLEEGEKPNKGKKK

B1: GCC11 (crystal) (dsDNA)
DNA 1: TAGCCGCCAGC
DNA 2: GCTGGCGGCTA
In the case of B1, the binding result with AtERF96 WT [1] is recorded as “binds”.

B2: GCC11 probe (fEMSA) (dsDNA)
DNA 1: TAGCCGCCAGC
DNA 2: GCTGGCGGCTA
In the case of B2, the binding result with AtERF96 WT [2] was “binds”.

B3: GCC12 (dsDNA)
DNA 1: GTAGCCGCCAGC
DNA 2: GCTGGCGGCTAC
As to B3, the binding result with AtERF96 WT [3] is given as “binds”.
